The values that follow come from patent US20030119716A1, “Methods for screening, treating and diagnosing G-protein coupled receptor-related disorders and compositions thereof” (Wyeth, priority 2001, published 2003).

For test [1], the target named is Gαq/i chimera. As to the kind of experiment: cell-based or functional assay.
Test [2] deals with Gαi1. In words: cell-based or functional assay.

For human RGS4 (from UniProt P49798 1-205), the reduction in SRE activation (SRE-luciferase reporter, CHO-D2R cells) in test [1] was found to be 60%. Also, in test [2], the inhibition of SRE activation (SRE-luciferase reporter, all quinpirole concentrations, CHO-D2R cells) was over 80% and the reduction in quinpirole-stimulated SRE activation (SRE-luciferase reporter, 100 nM quinpirole, CHO-D2R cells) is 85%.

human RGSz1 (from UniProt O76081 1-388) returned an attenuation of SRE activation (SRE-luciferase reporter, CHO-D2R cells co-transfected with Gαi1) in test [2] of 25 to 30%.
